Bridge positions count the residues as written; N and C are the ends. Ends that are not written are not given here. Peptide text beside a SMILES is read from it.
Assays:
NPR-B [1] = target: T1, NPR-B (Homo sapiens, UniProt P20594); test: Whole cell guanylyl cyclase (cGMP) assay, NPR-B; format: cell-based; design: expressed in transfected cells; details: for potency compared with CNP22: CNP22 position 17 point mutants, NPR-B whole cell cGMP assay (FIG. 30); for efficacy relative to CNP / potency relative to CNP (times less than that of CNP): NPR-B whole cell assay (FIG. 21C)
T1 sequence (P20594 23-1047): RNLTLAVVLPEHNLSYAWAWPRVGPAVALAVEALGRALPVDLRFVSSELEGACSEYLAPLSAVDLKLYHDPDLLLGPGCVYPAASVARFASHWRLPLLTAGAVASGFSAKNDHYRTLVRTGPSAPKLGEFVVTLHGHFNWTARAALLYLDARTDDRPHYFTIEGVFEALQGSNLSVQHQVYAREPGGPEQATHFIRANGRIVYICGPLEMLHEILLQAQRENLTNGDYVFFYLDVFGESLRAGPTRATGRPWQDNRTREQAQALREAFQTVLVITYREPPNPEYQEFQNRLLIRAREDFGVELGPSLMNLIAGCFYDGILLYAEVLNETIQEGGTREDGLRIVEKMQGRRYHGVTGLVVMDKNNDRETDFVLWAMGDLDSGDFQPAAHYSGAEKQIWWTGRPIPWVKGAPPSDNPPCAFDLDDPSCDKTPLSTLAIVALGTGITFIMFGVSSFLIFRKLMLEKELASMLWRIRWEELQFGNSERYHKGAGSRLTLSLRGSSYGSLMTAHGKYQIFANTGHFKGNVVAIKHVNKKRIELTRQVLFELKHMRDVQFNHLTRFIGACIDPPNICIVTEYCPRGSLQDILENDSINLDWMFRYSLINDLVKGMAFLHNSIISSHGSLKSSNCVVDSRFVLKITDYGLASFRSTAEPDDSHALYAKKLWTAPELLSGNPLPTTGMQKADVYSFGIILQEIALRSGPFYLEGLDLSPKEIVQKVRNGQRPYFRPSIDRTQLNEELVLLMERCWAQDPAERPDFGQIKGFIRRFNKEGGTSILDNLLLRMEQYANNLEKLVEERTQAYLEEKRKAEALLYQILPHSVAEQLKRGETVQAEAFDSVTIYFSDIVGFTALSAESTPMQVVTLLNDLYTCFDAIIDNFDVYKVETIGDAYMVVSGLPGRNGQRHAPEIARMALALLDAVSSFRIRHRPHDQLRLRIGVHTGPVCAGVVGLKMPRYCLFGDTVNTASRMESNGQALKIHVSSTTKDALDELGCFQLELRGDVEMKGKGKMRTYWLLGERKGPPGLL
Method: HEK293S cells in a semi-confluent 75 cm2 flask are transfected with 30 μg of plasmid DNA coding for the appropriate receptor, e.g., human NPR-B or NPR-A, using Lipofectamine-2000CD. Alternatively, a stable polyclonal HEK293 S cell line expressing either human NPR-B or NPR-A was used. 24 hours after transfection, cells are trypsinized and plated into 48-well plates at 1×10^5 cells/well. Guanylyl cyclase assay is carried out 24 hours post-plating. Cells are first incubated for 30 minutes at 37° C. with serum-free DMEM medium. Then, they are incubated in triplicate with or without increasing concentrations of reference or test proteins in serum-free DMEM supplemented with 1 mM IBMX and 0.5% BSA, at 37° C. for 30 minutes to one hour. CNP serves as a suitable reference for NPR-B, while ANP is a suitable reference for NPR-A. Finally, cells are washed with ice-cold PBS and solubilized in lysis buffer from Catchpoint cGMP kit (Molecular devices). Concentrations of cGMP in lysate are determined using the Catchpoint cGMP kit. Dose-response curves are analysed with GraphPad Prism 5 software using non-linear regression with four-parameter logistic equation.

NPR-B [2] = target: T1, NPR-B; test: Membrane guanylyl cyclase (cGMP) assay, NPR-B; format: biochemical
[3] = target: T2, neutral endopeptidase (NEP) (Homo sapiens, UniProt P08473)
[4] = target: T2, neutral endopeptidase (NEP); test: in vitro; details: isolated enzyme neprilysin, pH 7.5
[5] = first NPR-B membrane assay (FIG. 21A)
[6] = second NPR-B membrane assay (FIG. 21B)

T2 sequence (P08473 whole entry): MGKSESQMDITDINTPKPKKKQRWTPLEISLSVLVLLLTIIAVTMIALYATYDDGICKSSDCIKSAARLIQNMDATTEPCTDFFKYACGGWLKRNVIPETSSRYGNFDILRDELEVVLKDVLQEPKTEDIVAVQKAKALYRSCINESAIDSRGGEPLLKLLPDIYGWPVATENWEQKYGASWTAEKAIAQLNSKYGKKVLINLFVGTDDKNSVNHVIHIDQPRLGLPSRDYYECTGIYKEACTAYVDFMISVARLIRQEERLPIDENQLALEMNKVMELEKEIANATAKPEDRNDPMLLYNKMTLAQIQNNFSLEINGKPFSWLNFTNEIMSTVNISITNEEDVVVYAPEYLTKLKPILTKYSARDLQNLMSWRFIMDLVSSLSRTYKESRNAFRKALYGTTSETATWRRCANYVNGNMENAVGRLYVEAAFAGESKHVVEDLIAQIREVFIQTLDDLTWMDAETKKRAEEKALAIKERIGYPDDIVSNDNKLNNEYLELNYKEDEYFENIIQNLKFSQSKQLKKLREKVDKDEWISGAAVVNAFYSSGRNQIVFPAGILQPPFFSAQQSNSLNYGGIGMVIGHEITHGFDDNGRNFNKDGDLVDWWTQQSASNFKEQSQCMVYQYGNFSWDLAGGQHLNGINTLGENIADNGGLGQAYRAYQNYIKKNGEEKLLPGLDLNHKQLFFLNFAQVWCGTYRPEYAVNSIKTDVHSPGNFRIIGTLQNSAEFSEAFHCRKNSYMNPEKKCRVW

Compound: CNP-R17: CNP22 point mutant at position 17; SEQ ID NO: 157 (GLSKGCFGLKLDRIGSRSGLGC; Synthetic Construct (CNP-R17))
- potency compared with CNP22 (NPR-B [1]): improved potency

Compound: Fc-CNP53-A: N-terminal Fc, Gly3 linker, CNP53 with position 48 mutated to alanine; SEQ ID NO: 518
- efficacy relative to CNP (NPR-B [2]; [5]): slightly better efficacy than CNP
- potency relative to CNP (times less than that of CNP) (NPR-B [2]; [5]): more than twice the potency as CNP
- efficacy relative to CNP (NPR-B [2]; [6]): comparable efficacy
- potency relative to CNP (times less than that of CNP) (NPR-B [2]; [6]): 1.3 times
- efficacy relative to CNP (NPR-B [1]): comparable efficacy
- potency relative to CNP (times less than that of CNP) (NPR-B [1]): 5.4 times

Compound: CC[C@H](C)[C@@H]1NC(=O)[C@H](CCCNC(=N)N)NC(=O)[C@H](CC(=O)O)NC(=O)[C@H](CC(C)C)NC(=O)[C@H](CCCCN)NC(=O)[C@H](CC(C)C)NC(=O)CNC(=O)[C@H](Cc2ccccc2)NC(=O)[C@@H](NC(=O)CNC(=O)[C@H](CCCCN)NC(=O)[C@H](CO)NC(=O)[C@H](CC(C)C)NC(=O)CN)CSSC[C@@H](C(=O)N[C@@H](CCCCN)C(=O)N[C@@H](CO)C(=O)N[C@@H](CC(C)C)C(=O)N[C@@H](CCCNC(=N)N)C(=O)N[C@@H](CC(=O)O)C(=O)N2CCC[C@H]2C(=O)N[C@@H](CCCNC(=N)N)C(=O)N2CCC[C@H]2C(=O)N[C@@H](CC(N)=O)C(=O)N[C@@H](C)C(=O)N2CCC[C@H]2C(=O)N[C@@H](CO)C(=O)N[C@H](C(=O)N[C@@H](CO)C(=O)N[C@@H](C)C(=O)O)[C@@H](C)O)NC(=O)CNC(=O)[C@H](CC(C)C)NC(=O)CNC(=O)[C@H](CO)NC(=O)[C@H](CCSC)NC(=O)[C@H](CO)NC(=O)CNC1=O [CDNP-K1] (HELM PEPTIDE1{G.L.S.K.G.C.F.G.L.K.L.D.R.I.G.S.M.S.G.L.G.C.K.S.L.R.D.P.R.P.N.A.P.S.T.S.A}$PEPTIDE1,PEPTIDE1,6:R3-22:R3$$$V2.0)
- sensitivity to NEP degradation [3]: slightly more sensitive to NEP than the other CDNP variants

Compound: CNP-L17: CNP22 point mutant at position 17; SEQ ID NO: 120 (GLSKGCFGLKLDRIGSLSGLGC; Synthetic Construct (CNP-L17 (C16)))
- potency compared with CNP22 (NPR-B [1]): comparable potency to CNP22

Compound: DDDDDDGGGGSGGGGSGGGGGLSKGCFGLKLDRIGSMSGLGC (disulfide 26-42) [D6-14AAlinker-CNP [C3]]
- remaining at 4 h [4]: 101%

Compound: CC[C@H](C)[C@@H]1NC(=O)[C@H](CCCNC(=N)N)NC(=O)[C@H](CC(=O)O)NC(=O)[C@H](CC(C)C)NC(=O)[C@H](CCCCN)NC(=O)[C@H](CC(C)C)NC(=O)CNC(=O)[C@H](Cc2ccccc2)NC(=O)[C@@H](NC(=O)CNC(=O)[C@H](CCCCN)NC(=O)[C@H](CO)NC(=O)[C@H](CC(C)C)NC(=O)CN)CSSC[C@@H](C(=O)N[C@@H](Cc2c[nH]cn2)C(=O)N[C@@H](CO)C(=O)N[C@@H](CC(C)C)C(=O)N[C@@H](CCCNC(=N)N)C(=O)N[C@@H](CC(=O)O)C(=O)N2CCC[C@H]2C(=O)N[C@@H](CCCNC(=N)N)C(=O)N2CCC[C@H]2C(=O)N[C@@H](CC(N)=O)C(=O)N[C@@H](C)C(=O)N2CCC[C@H]2C(=O)N[C@@H](CO)C(=O)N[C@H](C(=O)N[C@@H](CO)C(=O)N[C@@H](C)C(=O)O)[C@@H](C)O)NC(=O)CNC(=O)[C@H](CC(C)C)NC(=O)CNC(=O)[C@H](CO)NC(=O)[C@H](CCSC)NC(=O)[C@H](CO)NC(=O)CNC1=O [CDNP-H1] (HELM PEPTIDE1{G.L.S.K.G.C.F.G.L.K.L.D.R.I.G.S.M.S.G.L.G.C.H.S.L.R.D.P.R.P.N.A.P.S.T.S.A}$PEPTIDE1,PEPTIDE1,6:R3-22:R3$$$V2.0)
- sensitivity to NEP degradation [3]: comparable NEP sensitivity

Compound: CNP-T17: CNP22 point mutant at position 17; SEQ ID NO: 122 (GLSKGCFGLKLDRIGSTSGLGC; Synthetic Construct (CNP-T17 (C18)))
- potency compared with CNP22 (NPR-B [1]): comparable potency to CNP22

Compound: CC[C@H](C)[C@@H]1NC(=O)[C@H](CCCNC(=N)N)NC(=O)[C@H](CC(=O)O)NC(=O)[C@H](CC(C)C)NC(=O)[C@H](CCCCN)NC(=O)[C@H](CC(C)C)NC(=O)CNC(=O)[C@H](Cc2ccccc2)NC(=O)[C@@H](NC(=O)CNC(=O)[C@H](CCCCN)NC(=O)[C@H](CO)NC(=O)[C@H](CC(C)C)NC(=O)CN)CSSC[C@@H](C(=O)NCC(=O)N[C@@H](CO)C(=O)N[C@@H](CC(C)C)C(=O)N[C@@H](CCCNC(=N)N)C(=O)N[C@@H](CC(=O)O)C(=O)N2CCC[C@H]2C(=O)N[C@@H](CCCNC(=N)N)C(=O)N2CCC[C@H]2C(=O)N[C@@H](CC(N)=O)C(=O)N[C@@H](C)C(=O)N2CCC[C@H]2C(=O)N[C@@H](CO)C(=O)N[C@H](C(=O)N[C@@H](CO)C(=O)N[C@@H](C)C(=O)O)[C@@H](C)O)NC(=O)CNC(=O)[C@H](CC(C)C)NC(=O)CNC(=O)[C@H](CO)NC(=O)[C@H](CCSC)NC(=O)[C@H](CO)NC(=O)CNC1=O [CDNP-G1] (HELM PEPTIDE1{G.L.S.K.G.C.F.G.L.K.L.D.R.I.G.S.M.S.G.L.G.C.G.S.L.R.D.P.R.P.N.A.P.S.T.S.A}$PEPTIDE1,PEPTIDE1,6:R3-22:R3$$$V2.0)
- sensitivity to NEP degradation [3]: comparable NEP sensitivity

Compound: Fc-CNP53-AAA: Fc-CNP53-A with residues 30 and 31 of CNP53 mutated to alanine; SEQ ID NO: 520
- efficacy relative to CNP (NPR-B [2]; [5]): about two-thirds of CNP's efficacy
- potency relative to CNP (times less than that of CNP) (NPR-B [2]; [5]): 1.5 times
- efficacy relative to CNP (NPR-B [2]; [6]): comparable efficacy
- potency relative to CNP (times less than that of CNP) (NPR-B [2]; [6]): 3.3 times
- efficacy relative to CNP (NPR-B [1]): 74%
- potency relative to CNP (times less than that of CNP) (NPR-B [1]): 14 times

Compound: CNP-F17: CNP22 point mutant at position 17; SEQ ID NO: 119 (GLSKGCFGLKLDRIGSFSGLGC; Synthetic Construct (CNP-F17 (C15)))
- potency compared with CNP22 (NPR-B [1]): comparable potency to CNP22

Compound: CNP-Y17: CNP22 point mutant at position 17; SEQ ID NO: 158 (GLSKGCFGLKLDRIGSYSGLGC; Synthetic Construct (CNP-Y17))
- potency compared with CNP22 (NPR-B [1]): improved potency

Compound: CC[C@H](C)[C@@H]1NC(=O)[C@H](CCCNC(=N)N)NC(=O)[C@H](CC(=O)O)NC(=O)[C@H](CC(C)C)NC(=O)[C@H](CCCCN)NC(=O)[C@H](CC(C)C)NC(=O)CNC(=O)[C@H](Cc2ccccc2)NC(=O)[C@@H](NC(=O)CNC(=O)[C@H](CCCCN)NC(=O)[C@H](CO)NC(=O)[C@H](CC(C)C)NC(=O)CN)CSSC[C@@H](C(=O)N[C@@H](CC(N)=O)C(=O)N[C@@H](CO)C(=O)N[C@@H](CC(C)C)C(=O)N[C@@H](CCCNC(=N)N)C(=O)N[C@@H](CC(=O)O)C(=O)N2CCC[C@H]2C(=O)N[C@@H](CCCNC(=N)N)C(=O)N2CCC[C@H]2C(=O)N[C@@H](CC(N)=O)C(=O)N[C@@H](C)C(=O)N2CCC[C@H]2C(=O)N[C@@H](CO)C(=O)N[C@H](C(=O)N[C@@H](CO)C(=O)N[C@@H](C)C(=O)O)[C@@H](C)O)NC(=O)CNC(=O)[C@H](CC(C)C)NC(=O)CNC(=O)[C@H](CO)NC(=O)[C@H](CCSC)NC(=O)[C@H](CO)NC(=O)CNC1=O [CDNP-N1] (HELM PEPTIDE1{G.L.S.K.G.C.F.G.L.K.L.D.R.I.G.S.M.S.G.L.G.C.N.S.L.R.D.P.R.P.N.A.P.S.T.S.A}$PEPTIDE1,PEPTIDE1,6:R3-22:R3$$$V2.0)
- sensitivity to NEP degradation [3]: comparable NEP sensitivity

Source: US9266939B2, “Compositions comprising natriuretic peptides and methods of use thereof” (Alexion Pharmaceuticals, Inc., priority 2010, dated 2016)
